Source: article PMC7614720

Substrate: C[C@@H](O)[C@H]1C(=O)N2C(C(=O)O)=C([C@H]3CCCO3)S[C@H]12
Experiment: purified protein
Type: biochemical, Stenotrophomonas maltophilia
Conditions: two Zn2+ ions active site

B1: L1 (Stenotrophomonas maltophilia) (protein)
chain: VDASWLQPMAPLQIADHTWQIGTEDLTALLVQTPDGAVLLDGGMPQMASHLLDNMKARGVTPRDLRLILLSHAHADHAGPVAELKRRTGAKVAANAESAVLLARGGSDDLHFGDGITYPPANADRIVMDGEVITVGGIVFTAHFMAGHTPGSTAWTWTDTRNGKPVRIAYADSLSAPGYQLQGNPRYPHLIEDYRRSFATVRALPCDVLLTPHPGASNWDYAAGARAGAKALTCKAYADAAEQKFDGQLAKETAGAR
In the case of B1, the Km is reported as 36.3 µM, the kcat is reported as 43.7 s⁻¹ and the kcat/Km is reported as 1.2e+06 M⁻¹ s⁻¹.
